Results taken from patent US6132729 (Board of Regents, The University of Texas System, dated 2000).
Values joined by “and” are separate entries in the source; they are usually repeats but may differ in a detail not shown here. Equal values may be shown once. Read-outs that look alike come from different tables or passages of the source.

Key:
[1] = target: tTF219 (truncated Tissue Factor, extracellular domain of mature human Tissue Factor) (human)
[2] = target: H6-N'-cys-tTF219 dimer (human)
[3] = target: tTF219 (truncated Tissue Factor, extracellular domain of mature human Tissue Factor) (human); remark: listed apart in the source
[4] = target: H6-tTF221-cys-C' dimer (human)
[5] = target: tTF219 (truncated Tissue Factor, extracellular domain of mature human Tissue Factor) (human); remark: listed apart in the source
H6-N'-cys-tTF219 (human) [6] = target: H6-N'-cys-tTF219 (human)
H6-N'-cys-tTF219 (human) [7] = target: H6-N'-cys-tTF219 (human); remark: listed apart in the source
[8] = target: IgG-H6-N'-cys-tTF219 (human)
[9] = target: tTF219 (truncated Tissue Factor, extracellular domain of mature human Tissue Factor) (human); remark: listed apart in the source
[10] = target: tTF219 (truncated Tissue Factor, extracellular domain of mature human Tissue Factor) (human); remark: listed apart in the source
[11] = target: T1, Factor VIIa (recombinant human) (human); assay: cell-based or functional assay
T1 chain 1: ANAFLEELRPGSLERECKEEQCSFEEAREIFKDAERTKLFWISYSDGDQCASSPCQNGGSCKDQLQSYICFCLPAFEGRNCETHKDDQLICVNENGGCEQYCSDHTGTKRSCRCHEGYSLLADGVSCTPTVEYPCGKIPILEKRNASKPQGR
T1 chain 2: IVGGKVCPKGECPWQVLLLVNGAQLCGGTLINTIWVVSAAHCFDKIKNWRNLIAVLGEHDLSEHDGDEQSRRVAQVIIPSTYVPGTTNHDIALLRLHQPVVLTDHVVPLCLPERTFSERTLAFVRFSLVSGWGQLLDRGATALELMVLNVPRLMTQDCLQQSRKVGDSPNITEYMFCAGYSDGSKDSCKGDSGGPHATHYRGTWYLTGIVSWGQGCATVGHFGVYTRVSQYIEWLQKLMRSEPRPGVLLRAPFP

For B21-2/10H10 bispecific antibody, the clotting time of mouse plasma on A20 cells [1] was 36 s, the tTF concentration at which plasma coagulated in 50 seconds [2] was 100 pM and 200 pM and the tTF concentration at which plasma coagulated in 50 seconds [3] was 100 pM and 200 pM. For the same molecule, the tTF concentration at which plasma coagulated in 50 seconds [4] was 4 nM, the tTF concentration at which plasma coagulated in 50 seconds [5] was 3 nM and the tTF concentration at which plasma coagulated in 50 seconds (H6-N'-cys-tTF219 (human) [6]) was 3 nM. The tTF concentration at which plasma coagulated in 50 seconds (H6-tTF219-cys-C' (human)) was 3 nM, the tTF concentration at which plasma coagulated in 50 seconds (H6-N'-cys-tTF219 (human) [7]) was 1 nM and the coagulation inducing activity against the unconjugated form [8] was 5 fold reduced. For the same molecule, the tTF concentration at which plasma coagulated in 50 seconds [8] was 5 nM, the tTF concentration at which plasma coagulated in 50 seconds [9] was 1 nM and the tTF concentration at which plasma coagulated in 50 seconds (tTF221-cys-C' (human)) was 500 pM. It also gave a tTF concentration at which plasma coagulated in 50 seconds (tTF220-cys-C' (human)) of 500 pM, a tTF concentration at which plasma coagulated in 50 seconds (H6-tTF221-cys-C' (human)) of 500 pM and a tTF concentration at which plasma coagulated in 50 seconds [10] of 500 pM. For the same molecule, the tTF concentration at which plasma coagulated in 50 seconds (H6-tTF220-cys-C' (human)) was 500 pM.

A conversion of Factor X to Xa (chromogenic substrate S-2765, OD 409 nm) (fold less active) (Factor VII in Proplex T) of 2 was found for IgG-H6-N'-cys-tTF219 in this work.

B1: tTF219 (truncated Tissue Factor, extracellular domain of mature human Tissue Factor) (receptor)
chain: GSGTTNTVAAYNLTWKSTNFKTILEWEPKPVNQVYTVQISTKSGDWKSKCFYTTDTECDLTDEIVKDVKQTYLARVFSYPAGNVESTGSAGEPLYENSPEFTPYLETNLGQPTIQSFEQVGTKVNVTVEDERTLVRRNNTFLSLRDVFGKDLIYTLYYWKSSSSGKKTAKTNTNEFLIDVDKGENYCFSVQAVIPSRTVNRKSTDSPVECMGQEKGEFRE
With B1 the “coagulation-inducing potency of cell-associated tTF219 with added Factor VIIa” value [11] was about 100 fold.
